The values below come from US20200216514A1, “Generalized Extracellular Molecule Sensor” (ETH ZURICH, priority 2019, published 2020).

Substitutions are numbered along the chain they refer to. Names and notes keep the numbering of the source.

Data set [1] relates to JAK/STAT signaling through STAT3. Briefly: C-STAR caffeine-inducible STAT3 SEAP reporter assay in HEK-293T cells. The data set is classed as cell-based, human. Particulars: 1 μM concentration; C-STARDB1 cells; FIG. 22. The method, then:
All cells were cultured in a humidified atmosphere containing 5% CO2 at 37° C.
On the technique in general: A reporter such as luciferase makes a cellular process visible.

The conditions of data set [2]: cited from earlier work.
In data set [3] the test system is WEN1.3 cells. Briefly: Endogenous IL-10 secretion (ELISA) in WEN1.3 hybridoma cells. The data set is classed as cell-based. The following applies: for Fold change (IL-10 concentration in supernatant): 0 ng vs. 100 ng RR120/mL, 24 h. The procedure: WEN1.3 cells (See Pogson M et al., Nat. Commun., 2016, 7:12535) were cultivated in DMEM (52100039, Thermo Fisher) supplemented with 10% (v/v) heat-inactivated FBS (F7524, lot BCBS0318V, Sigma-Aldrich), 1% (v/v) streptomycin/penicillin (L0022, Biowest), 10 mM HEPES buffer (Ser. No. 15/630,056, Thermo Fisher), and […] 2-mercaptoethanol (M3148, Sigma-Aldrich) in a humidified atmosphere of 5% CO2 in air at 37° C. Cells were transfected by electroporation with program CQ-104 of the 4D-Nucleofector System (Lonza) and the SF Cell Line 4D-Nucleofector X Kit L (V4XC-2024, Lonza).
For each transfection 1×10^6 cells were washed twice by centrifugation for 5 min at 90 g and then resuspended in 1 mL of Opti-MEM I Reduced Serum Medium (31985062, Thermo Fisher); after washing, the cells were resuspended in 100 μL Lonza SF buffer containing 0.5 μg sleeping beauty transposase expression plasmid (pCMV(CAT)T7-SB100) and 9.5 μg of a plasmid for stable integration and expression of JAK/STAT-GEMS (pLeo695) or MAPK-GEMS (pLeo694). After pulsing, 500 μL prewarmed culture medium was added for 10 min. Cells were transferred to 1 mL culture media in 24-well plates (142475, Thermo Fisher) and were grown for 48 h. For creating stable cell lines, cells were transferred to 3 mL culture media in 6-well plates (140675, Thermo Fisher) and were selected with 5 μg/mL puromycin (ANT-PR-1, InvivoGen) for 14 d. For experiments, cells were centrifuged for 5 min at 90 g and resuspended in culture media (with or without RR120) to give a concentration of 1×10^6 cells/mL, and then 500 μL of the cell suspension was transferred per well of a 48-well plate. IL-10 ELISAs (900-TM53, PeproTech) were performed 24 h after induction.
A general note: An ELISA detects its analyte on a solid surface through an enzyme-linked reagent.

The target in data set [4] is SunTag8×-mCherry fusion protein. Briefly: cell-based or functional assay.
The test system of data set [5] is NFAT, STAT3 and MAPK signaling. Briefly: GEMS pathway crosstalk reporters (FIG. 13A-B) in HEK-293T cells. It is filed as cell-based, human. The procedure:
Human embryonic kidney cells (HEK-293T, American Type Culture Collection (ATCC): CRL-11268) were cultivated in Dulbecco's modified Eagle's medium (DMEM; 52100039, Thermo Fisher) supplemented with 10% (v/v) FBS (F7524, lot BCBS0318V, Sigma-Aldrich) and 1% (v/v) streptomycin/penicillin (L0022, Biowest) in a humidified atmosphere of 5% CO2 in air at 37° C. For experiments, 1.5×10^6 cells in 12 mL DMEM were seeded into 96-well plates (167008, Thermo Fisher) 24 h before transfection. The transfection mix in each well consisted of 125-130 ng of plasmid DNA mixed with 50 μL FBS and antibiotics-free DMEM and 600 ng of polyethyleneimine (24765-1, Polysciences, Inc.). The transfection mix was prepared separately, incubated for 20 min and then added to the cells for overnight transfection. […] Reporter output was measured 24 h after induction for all experiments. […]
FIGS. 5A-C; FIG. 6A; FIG. 8; FIG. 9; FIGS. 10A-B; FIGS. 11A-C; FIG. 12; FIGS. 13A-B: 600 ng of receptor plasmids (for heterodimeric receptors 300 ng of each subunit) and for STAT readout 150 ng of a STAT3 reporter plasmid (pLS13) and 25 ng of a STAT3 expression vector (pLS15); for MAPK-readout 75 ng of a TetR reporter plasmid (pMF111) and 100 ng of a TetR-Elk1 fusion expression vector (MKp37); for NFAT readout 175 ng of a NFAT reporter plasmid (pHY30) and for NF-κB readout 175 ng of a NF-κB reporter plasmid (pKR32). […]

In data set [6] the test system is JAK/STAT signaling (STAT3 reporter). Briefly: GEMS STAT3-responsive SEAP reporter assay in HEK-293T cells. The data set is classed as cell-based, human. The following applies: for Fold change (SEAP reporter): 24 h induction; for Response to erythropoietin: FIG. 5B, with / without F93A modification of EpoR. The method, then: Human embryonic kidney cells (HEK-293T, American Type Culture Collection (ATCC): CRL-11268) were cultivated in Dulbecco's modified Eagle's medium (DMEM; 52100039, Thermo Fisher) supplemented with 10% (v/v) FBS (F7524, lot BCBS0318V, Sigma-Aldrich) and 1% (v/v) streptomycin/penicillin (L0022, Biowest) in a humidified atmosphere of 5% CO2 in air at 37° C. For experiments, 1.5×10^6 cells in 12 mL DMEM were seeded into 96-well plates (167008, Thermo Fisher) 24 h before transfection. The transfection mix in each well consisted of 125-130 ng of plasmid DNA mixed with 50 μL FBS and antibiotics-free DMEM and 600 ng of polyethyleneimine (24765-1, Polysciences, Inc.). The transfection mix was prepared separately, incubated for 20 min and then added to the cells for overnight transfection. In the morning, medium with the transfection mix was exchanged for 130 μL/well medium with different concentrations of the appropriate inducer or no inducer as a negative control. Reporter output was measured 24 h after induction for all experiments. Plasmid amounts used for transfections per set of six wells of a 96-well plate were as follows:
FIG. 3B; FIG. 4B: 5 ng for each receptor subunit or as indicated in the figure, 150 ng STAT3 reporter plasmid (pLS13), 25 ng STAT3 expression vector (pLS15) and […] (or the appropriate amount to make a total of 775 ng) of a plasmid without mammalian promoter (pDF145).
FIGS. 5A-C; FIG. 6A; FIG. 8; FIG. 9; FIGS. 10A-B; FIGS. 11A-C; FIG. 12; FIGS. 13A-B: 600 ng of receptor plasmids (for heterodimeric receptors 300 ng of each subunit) and for STAT readout 150 ng of a STAT3 reporter plasmid (pLS13) and 25 ng of a STAT3 expression vector (pLS15); for MAPK-readout 75 ng of a TetR reporter plasmid (pMF111) and 100 ng of a TetR-Elk1 fusion expression vector (MKp37); for NFAT readout 175 ng of a NFAT reporter plasmid (pHY30) and for NF-κB readout 175 ng of a NF-κB reporter plasmid (pKR32).
SEAP concentrations in cell culture supernatants were quantified in terms of absorbance increase due to hydrolysis of para-nitrophenyl phosphate (pNPP). 80 μL of heat-inactivated (30 min at 65° C., then centrifuged for 1 min, 3,220 g) supernatant was mixed in a 96-well dish with 100 μL of 2×SEAP buffer (20 mM homoarginine, 1 mM MgCl2, 21% (v/v) diethanolamine, pH 9.8) and 20 μL of substrate solution containing 20 mM pNPP (Acros Organics BVBA). Samples were measured at 405 nm with a Tecan Genios PRO multiplate reader (Tecan AG) or an EnVision 2104 multilabel reader (PerkinElmer). SEAP production in vivo was quantified with the chemiluminescence SEAP reporter gene assay (cat. no. 11779842001, Sigma-Aldrich) according to the manufacturer's instructions.

As to `Cn1c(=O)c2[nH]cnc2n(C)c1=O` [theophylline], the “Cross-activation of C-STAR by caffeine analogs” value in data set [1] is reported as “modest cross-activation”.

Regarding `Cn1c(=O)c2c(ncn2C)n(C)c1=O` [caffeine], in data set [2], the “Half-life of caffeine in human blood” value was “approximately five”.

`O=S(=O)(O)c1cc(Nc2nc(Cl)nc(Nc3ccc(Nc4nc(Cl)nc(Nc5cc(S(=O)(=O)O)cc6cc(S(=O)(=O)O)c(N=Nc7ccccc7S(=O)(=O)O)c(O)c56)n4)cc3)n2)c2c(O)c(N=Nc3ccccc3S(=O)(=O)O)c(S(=O)(=O)O)cc2c1` [RR120, reactive red 120, reference compound]: the “Fold change (IL-10 concentration in supernatant)” value in data set [3] (WT WEN1.3 cells (no receptor)) came to 1.1 fold.

B1: JAK/STAT-GEMSSunTag (pLeo620; scFvαGCN4-EpoRm-IL-6RBm) (receptor, part only; not given: Signal peptide and scFv-EpoR linker, part only)
chain, part: DIVMTQSPSSLSASVGDRVTITCRSSTGAVTTSNYASWVQEKPGKLFKGLIGGTNNRAPGVPSRFSGSLIGDKATLTISSLQPEDFATYFCALWYSNHWVFGQGTKVELKRGGGGSGGGGSGGGGSSGGGSEVKLLESGGGLVQPGGSLKLSCAVSGFSLTDYGVNWVRQAPGRGLEWIGVIWGDGITDYNSALKDRFIISKDNGKNTVYLQMSKVRSDDTALYYCVTGLFDYWGQGTLVTVSAPSPSLPDPKFESKAALLASRGSEELLCFTQRLEDLVCFWEEAASSGMDFNYSFSYQLEGESRKSCSLHQAPTVRGSVRFWCSLPTADTSSAVPLELQVTEASGSPRYHRIIHINEVVLLDAPAGLLARRAEEGSHVVLRWLPPPGAPMTTHIRYEVDVSAGNRAGGTQRVEVLEGRTECVLSNLRGGTRYTFAVRARMAEPSFSGFWSAWSEPASLLTASDLDPLILTLSLILVLISLLLTVLALLSAAANKRDLIKKHIWPNVPDPSKSHIAQWSPHTPPRHNFNSKDQMYSDGNFTDVSVVEIEANDKKPFPEDLKSLDLFKKEKINTEGHSSGIGGSSCMSSSRPSISSSDENESSQNTSSTVQASTVVHSGYRHQVPSVQVFSRSESTQPLLDSEERPEDLQLVDHVDGGDGILPRQQYFKQNCSQHESSPDISHFERSKQVSSVNEEDFVRLKQQISDHISQSCGSGQMKMFQEVSAADAFGPGTEGQVERFETVGMEAATDEGMPKSYLPQTVRQGGYMPQ
In data set [4], B1 showed a Fold change of MAPK reporter (NanoLuc), 0% vs. 0.002 % (v/v) bacterial lysate (SunTag), cells co-transfected with MAPK-GEMSRR120 (Y677F), FIG. 13C of 1.3 fold; a Fold change of SEAP, 0 % vs. 0.002 % (v/v) bacterial lysate (SunTag), FIG. 10A of 6.9 fold; a Fold change of SEAP, 0 % vs. 0.02 % (v/v) bacterial lysate (SunTag), FIG. 10A of 30 fold; a Fold change of STAT3 reporter (SEAP), 0% vs. 0.002 % (v/v) bacterial lysate (SunTag), cells co-transfected with MAPK-GEMSRR120 (Y677F), FIG. 13C of 12.9 fold. Moreover, the Fold change of STAT3 reporter (SEAP), no inducer vs. 100 ng RR120/mL + 0.002 % (v/v) bacterial lysate (SunTag), cells co-transfected with MAPK-GEMSRR120 (Y677F), FIG. 13C in data set [4] stood at 14.9 fold.

B2: JAK/STAT-GEMSRR120: PSV40-VHHA52-EpoRm-IL-6RBm-pA; optimized chimeric receptor (GEMS device) targeting RR120, JAK/STAT signaling (protein)
chain: VQLQESGGGLVQAGDSLKLSCEASGDSIGTYVIGWFRQAPGKERIYLATIGRNLVGPSDFYTRYADSVKGRFAVSRDNAKNTVNLQMNSLKPEDTAVYYCAAKTTTWGGNDPNNWNYWGQGTQVTVSGEFAPSPSLPDPKFESKAALLASRGSEELLCFTQRLEDLVCFWEEAASSGMDFNYSFSYQLEGESRKSCSLHQAPTVRGSVRFWCSLPTADTSSAVPLELQVTEASGSPRYHRIIHINEVVLLDAPAGLLARRAEEGSHVVLRWLPPPGAPMTTHIRYEVDVSAGNRAGGTQRVEVLEGRTECVLSNLRGGTRYTFAVRARMAEPSFSGFWSAWSEPASLLTASDLDPLILTLSLILVLISLLLTVLALLSAAANKRDLIKKHIWPNVPDPSKSHIAQWSPHTPPRHNFNSKDQMYSDGNFTDVSVVEIEANDKKPFPEDLKSLDLFKKEKINTEGHSSGIGGSSCMSSSRPSISSSDENESSQNTSSTVQASTVVHSGYRHQVPSVQVFSRSESTQPLLDSEERPEDLQLVDHVDGGDGILPRQQYFKQNCSQHESSPDISHFERSKQVSSVNEEDFVRLKQQISDHISQSCGSGQMKMFQEVSAADAFGPGTEGQVERFETVGMEAATDEGMPKSYLPQTVRQGGYMPQ
Take B2: the “Crosstalk to other signaling pathways” value in data set [5] is given as “cancelled the interference with MAPK signaling”. Moreover, the “IL-10 secretion upon GEMS activation by RR120” value in data set [3] (FIG. 14) is recorded as “substantially increased IL-10 secretion”. In data set [3] (stable polyclonal WEN1.3 cell line expressing the receptor), the “Fold change (IL-10 concentration in supernatant)” value is recorded as 1.5 fold. The “Fold change (SEAP reporter)” value in data set [6] (0 ng vs. 1 ng RR120/mL) was found to be 5.4 fold; in data set [6] (0 ng vs. 100 ng RR120/mL) it was 45 fold. In addition, in data set [6], the Response to erythropoietin entry was “induced with RR120 but not with erythropoietin”. Besides, the “Ratio of induced versus noninduced SEAP secretion (signal-to-noise ratio)” value in data set [6] (RR120 as inducer, FIG. 5C) is “over 40 fold”.

B3: pLeo618: PSV40-VHHA52-EpoR3A-IL-6RBm-pA; receptor with Y759A, without F93A modification (protein)
chain: B2 chain with A222F
In the case of B3, in data set [6], the Response to erythropoietin result is listed as “respond strongly to erythropoietin”.
